30 molecules from patent US20130150301A1 (KAI PHARMACEUTICALS, published 2013) can be followed below.

Experiment [1] concerns the target T1, human calcium-sensing receptor (CaSR) (human, UniProt P41180 20-1078).
T1 sequence (looked up): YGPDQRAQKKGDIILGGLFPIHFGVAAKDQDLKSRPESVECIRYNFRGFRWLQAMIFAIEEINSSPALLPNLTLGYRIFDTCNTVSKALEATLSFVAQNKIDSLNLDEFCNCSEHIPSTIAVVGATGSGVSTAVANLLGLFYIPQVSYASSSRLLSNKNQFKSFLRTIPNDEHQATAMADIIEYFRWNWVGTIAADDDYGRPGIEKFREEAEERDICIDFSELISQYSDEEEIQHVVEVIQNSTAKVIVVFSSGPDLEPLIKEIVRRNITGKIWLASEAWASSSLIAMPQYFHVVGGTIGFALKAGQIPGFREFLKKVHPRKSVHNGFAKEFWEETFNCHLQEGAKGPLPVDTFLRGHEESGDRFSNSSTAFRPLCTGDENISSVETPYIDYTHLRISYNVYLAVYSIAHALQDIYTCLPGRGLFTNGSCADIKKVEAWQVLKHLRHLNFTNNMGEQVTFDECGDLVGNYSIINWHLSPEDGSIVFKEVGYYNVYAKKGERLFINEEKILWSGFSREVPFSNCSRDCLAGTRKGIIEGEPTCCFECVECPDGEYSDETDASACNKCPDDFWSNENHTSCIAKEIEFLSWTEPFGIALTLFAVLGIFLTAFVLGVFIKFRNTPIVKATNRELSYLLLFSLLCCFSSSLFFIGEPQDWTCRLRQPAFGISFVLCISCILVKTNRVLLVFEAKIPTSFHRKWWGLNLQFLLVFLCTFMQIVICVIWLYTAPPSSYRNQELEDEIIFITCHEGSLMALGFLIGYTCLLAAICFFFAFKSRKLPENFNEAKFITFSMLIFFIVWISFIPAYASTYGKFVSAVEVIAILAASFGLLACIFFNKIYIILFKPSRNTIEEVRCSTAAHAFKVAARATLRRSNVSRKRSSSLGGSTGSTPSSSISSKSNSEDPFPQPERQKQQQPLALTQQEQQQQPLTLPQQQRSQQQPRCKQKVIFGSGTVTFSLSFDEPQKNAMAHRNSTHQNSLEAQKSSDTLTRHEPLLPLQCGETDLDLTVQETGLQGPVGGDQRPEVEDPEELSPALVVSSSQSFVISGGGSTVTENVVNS
In words: cell-based or functional assay.

For experiment [2], the target named is T1, human calcium-sensing receptor (CaSR). Briefly: cell-based or functional assay. The source holds these as a separate data set.

Ends that are not written are not given here.

B1: Ac-bAla-crrrrrr-NH2 (SEQ ID NO: 30) (peptide)
peptide: XXXXXXXX
modifications: acetylated beta-alanine (Ac-bAla) at the N-terminus; C-terminal amide; D-Cys and six D-Arg
Regarding B1, the “EC50 (IP1 production in HEK293 cells that express the human CaSR)” value (“EC50” for short) in experiment [1] was found to be 1 µM.

B2: Ac-C(C)arrrar-NH2 (SEQ ID NO: 34) (peptide)
peptide: XXXXXXX
modifications: not fully specified; N-terminal acetyl; C-terminal amide; L-Cys 1 conjugated via a disulfide linkage to an L-Cys residue (C); residues 2-7 D
As to B2, in experiment [1], the “EC50” value worked out at 2.5 µM.

B3: Ac-c(C)arrrar-NH2 (SEQ ID NO: 3) (peptide)
peptide: XXXXXXX
modifications: N-terminal acetyl; C-terminal amide; all seven residues D; D-Cys 1 conjugated via a disulfide linkage to an L-Cys residue (C)
With B3, the “EC50” value in experiment [1] was 10 µM.

B4: Ac-bAla-c(C)arrrar-NH2 (SEQ ID NO: 61) (peptide)
peptide: XXXXXXXX
modifications: acetylated beta-alanine (Ac-bAla) at the N-terminus; C-terminal amide; carrrar all D; L-Cys (C) attached to the side chain of the D-Cys
Turning to B4, the “EC50” value in experiment [1] came out at 2.6 µM. With Ac-YGRKKRRQRRR-NH2 [Ac-YGRKKRRQRRR-NH2 (SEQ ID NO: 48)], the “EC50” value in experiment [1] came to 16 µM.

B5: Ac-crarrrr-NH2 (SEQ ID NO: 9) (peptide)
peptide: XXXXXXX
HELM: PEPTIDE1{[ac].[dC].[dR].[dA].[dR].[dR].[dR].[dR].[am]}$$$$V2.0
SMILES: CC(=O)N[C@H](CS)C(=O)N[C@H](CCCNC(=N)N)C(=O)N[C@H](C)C(=O)N[C@H](CCCNC(=N)N)C(=O)N[C@H](CCCNC(=N)N)C(=O)N[C@H](CCCNC(=N)N)C(=O)N[C@H](CCCNC(=N)N)C(N)=O
B5: the “fold loss in in vitro potency against Ac-crrrrrr-NH2 (SEQ ID NO:6), human CaSR assay in HEK 293 cells” value in experiment [2] was roughly 2 fold. Turning to XXXXXXX (no N-terminal cap; C-terminal amide; all D-residues) [crrrrrr-NH2 (SEQ ID NO: 80)], the “EC50” value in experiment [1] was 1.1 µM.

B6: Ac-CaRrRaR-NH2 (SEQ ID NO: 44) (peptide)
peptide: CXRXRXR
modifications: N-terminal acetyl; C-terminal amide; L-Cys 1, D-Ala 2, L-Arg 3, D-Arg 4, L-Arg 5, D-Ala 6, L-Arg 7
As for B6, the “EC50” value in experiment [1] stood at 5.6 µM. In addition, in experiment [2], the “fold difference in potency against Ac-carrrar-NH2 (SEQ ID NO:26)” value was less than 4 fold and the “fold difference in potency against the CaSR, against Ac-crrrrrr-NH2 (SEQ ID NO:6)” value (shortened to “fold difference in potency … (SEQ ID NO:6)”) was determined as 10 fold.

B7: Ac-c(PEG5-C)rrrrrr-NH2 (SEQ ID NO: 58) (peptide)
peptide: XXXXXXX
modifications: N-terminal acetyl; C-terminal amide; all D-residues; L-Cys carrying a 5 kDa polyethylene glycol (PEG5-C) attached to the side chain of D-Cys 1
On to B7, for which the “EC50” value in experiment [1] is 0.58 µM. Turning to XXXXXXX (N-terminal acetyl; C-terminal amide; all D-residues) [Ac-carrrar-NH2 (SEQ ID NO: 26)], the “fold difference in potency … (SEQ ID NO:6)” value in experiment [2] was roughly 3 fold.

B8: c(C)arrrar-NH2 (SEQ ID NO: 60) (peptide)
peptide: XXXXXXX
modifications: no N-terminal cap; C-terminal amide; all D-residues; L-Cys (C) attached to the side chain of D-Cys 1
With B8, the “EC50” value in experiment [1] worked out at 3.1 µM.

B9: Ac-cygrkkrrqrrr-NH2 (SEQ ID NO: 50) (peptide)
peptide: XXXXXXXXXXXX
modifications: N-terminal acetyl; C-terminal amide; all D-residues (glycine printed in lower case)
Take B9: the “EC50” value in experiment [1] was 2 µM. Take Ac-CYGRKKRRQRRR-NH2 [Ac-CYGRKKRRQRRR-NH2 (SEQ ID NO: 47)]: the “EC50” value in experiment [1] stood at 4.5 µM. For the molecule XGXXXGX (N-terminal acetyl; C-terminal amide; D-Cys 1, Gly 2 and 6, D-Arg 3, 4, 5 and 7) [Ac-cGrrrGr-NH2 (SEQ ID NO: 42)], in experiment [2], the “fold reduction in potency against Ac-carrrar-NH2 (SEQ ID NO:26)” value is less than 8 fold.

B10: Ac-caaarrrrrr-NH2 (SEQ ID NO: 77) (peptide)
peptide: XXXXXXXXXX
HELM: PEPTIDE1{[ac].[dC].[dA].[dA].[dA].[dR].[dR].[dR].[dR].[dR].[dR].[am]}$$$$V2.0
SMILES: CC(=O)N[C@H](CS)C(=O)N[C@H](C)C(=O)N[C@H](C)C(=O)N[C@H](C)C(=O)N[C@H](CCCNC(=N)N)C(=O)N[C@H](CCCNC(=N)N)C(=O)N[C@H](CCCNC(=N)N)C(=O)N[C@H](CCCNC(=N)N)C(=O)N[C@H](CCCNC(=N)N)C(=O)N[C@H](CCCNC(=N)N)C(N)=O
Regarding B10, the “EC50” value in experiment [1] was 4.6 µM.

B11: conjugate of SEQ ID NO: 46 (CPDYHDAGI) and SEQ ID NO: 47 (Ac-CYGRKKRRQRRR-NH2) (peptide)
peptide 1: CPDYHDAGI
peptide 2: Ac-CYGRKKRRQRRR-NH2
modifications: not fully specified; cysteine pairing not given here
In the case of B11, the “EC50” value in experiment [1] is 21 µM. On the same count and under the same terms, the same measure for Ac-CARRRAR-NH2 [Ac-CARRRAR-NH2 (SEQ ID NO: 75)]: 58 µM.

B12: Ac-dHcy rrrrrr-NH2 (SEQ ID NO: 32) (peptide)
peptide: XXXXXXX
modifications: N-terminal acetyl; C-terminal amide; D-homocysteine (dHcy) at position 1; D-Arg 2-7
Turning to B12, the “EC50” value in experiment [1] was 2 µM.

B13: Ac-crrrrra-NH2 (SEQ ID NO: 13) (peptide)
peptide: XXXXXXX
HELM: PEPTIDE1{[ac].[dC].[dR].[dR].[dR].[dR].[dR].[dA].[am]}$$$$V2.0
SMILES: CC(=O)N[C@H](CS)C(=O)N[C@H](CCCNC(=N)N)C(=O)N[C@H](CCCNC(=N)N)C(=O)N[C@H](CCCNC(=N)N)C(=O)N[C@H](CCCNC(=N)N)C(=O)N[C@H](CCCNC(=N)N)C(=O)N[C@H](C)C(N)=O
With B13, the “fold loss in in vitro potency against Ac-crrrrrr-NH2 (SEQ ID NO:6), human CaSR assay in HEK 293 cells” value in experiment [2] is roughly 2 fold.

B14: Ac-c(Ac-C)arrrar-NH2 (SEQ ID NO: 55) (peptide)
peptide: XXXXXXX
modifications: N-terminal acetyl; C-terminal amide; all D-residues; N-acetylated L-Cys (Ac-C) attached to the side chain of D-Cys 1
In the case of B14, the “EC50” value in experiment [1] was 21 µM.

B15: Ac-carrrrr-NH2 (SEQ ID NO: 8) (peptide)
peptide: XXXXXXX
HELM: PEPTIDE1{[ac].[dC].[dA].[dR].[dR].[dR].[dR].[dR].[am]}$$$$V2.0
SMILES: CC(=O)N[C@H](CS)C(=O)N[C@H](C)C(=O)N[C@H](CCCNC(=N)N)C(=O)N[C@H](CCCNC(=N)N)C(=O)N[C@H](CCCNC(=N)N)C(=O)N[C@H](CCCNC(=N)N)C(=O)N[C@H](CCCNC(=N)N)C(N)=O
On to B15, for which, in experiment [2], the “fold loss in in vitro potency against Ac-crrrrrr-NH2 (SEQ ID NO:6), human CaSR assay in HEK 293 cells” value was roughly 2 fold.

B16: Ac-c(GS)rrrrrr-NH2 (SEQ ID NO: 53) (peptide)
peptide: XXXXXXX
modifications: not fully specified; N-terminal acetyl; C-terminal amide; all D-residues; oxidized glutathione (GS) attached to the side chain of D-Cys 1
As to B16, the “EC50” value in experiment [1] stood at 7.8 µM.

B17: Ac-crrarrr-NH2 (SEQ ID NO: 10) (peptide)
peptide: XXXXXXX
HELM: PEPTIDE1{[ac].[dC].[dR].[dR].[dA].[dR].[dR].[dR].[am]}$$$$V2.0
SMILES: CC(=O)N[C@H](CS)C(=O)N[C@H](CCCNC(=N)N)C(=O)N[C@H](CCCNC(=N)N)C(=O)N[C@H](C)C(=O)N[C@H](CCCNC(=N)N)C(=O)N[C@H](CCCNC(=N)N)C(=O)N[C@H](CCCNC(=N)N)C(N)=O
Turning to B17, the “fold loss in in vitro potency against Ac-crrrrrr-NH2 (SEQ ID NO:6), human CaSR assay in HEK 293 cells” value in experiment [2] is roughly 2 fold.

B18: Ac-c(Mpa)arrrar-NH2 (SEQ ID NO: 56) (peptide)
peptide: XXXXXXX
modifications: N-terminal acetyl; C-terminal amide; all D-residues; mercaptopropionic acid (Mpa) attached to the side chain of D-Cys 1
With B18, the “EC50” value in experiment [1] stood at 21 µM.

B19: Ac-c(acetyl)rrrrrr-NH2 (SEQ ID NO: 82) (peptide)
peptide: XXXXXXX
modifications: N-terminal acetyl; C-terminal amide; all D-residues; acetyl attached to the side chain of D-Cys 1
As to B19, in experiment [1], the “EC50” value was determined as 4.1 µM. Turning to XXXXXXX (N-terminal acetyl; free C-terminal acid (-OH); all D-residues) [Ac-carrrar-OH (SEQ ID NO: 74)], in experiment [1], the “EC50” value was found to be 31 µM.

B20: conjugate of SEQ ID NO: 45 (CHDAPIGYD) and SEQ ID NO: 47 (Ac-CYGRKKRRQRRR-NH2) (peptide)
peptide 1: CHDAPIGYD
peptide 2: Ac-CYGRKKRRQRRR-NH2
modifications: not fully specified; cysteine pairing not given here; also: further groups not given here
For the molecule B20, the “EC50” value in experiment [1] amounted to 21 µM.

B21: Ac-c(Benzoyl)rrrrrr-NH2 (SEQ ID NO: 81) (peptide)
peptide: XXXXXXX
modifications: N-terminal acetyl; C-terminal amide; all D-residues; benzoyl attached to the side chain of D-Cys 1
Regarding B21, in experiment [1], the “EC50” value came out at 3.6 µM. With XXXXX (N-terminal acetyl; C-terminal amide; all D-residues) [Ac-crrrr-NH2 (SEQ ID NO: 4)], the “EC50” value in experiment [1] was 16 µM. Also, the “shift in potency (HEK-293 in vitro cell assay), 4 against 5 arginine subunits” value in experiment [2] was greater than 10 fold.

B22: Ac-cArrrAr-NH2 (SEQ ID NO: 43) (peptide)
peptide: XAXXXAX
modifications: N-terminal acetyl; C-terminal amide; D-Cys 1, L-Ala 2 and 6, D-Arg 3, 4, 5 and 7
Regarding B22, in experiment [1], the “EC50” value is greater than 1000 µM. In experiment [2], the “fold decrease in potency against Ac-carrrar-NH2 (SEQ ID NO:26)” value was greater than 600 fold and the “fold difference in potency … (SEQ ID NO:6)” value is greater than 2000 fold.
